Test results from paper PMC5299547 (Analytical Chemistry, 2017).

Molecular target: T1, tryptophan synthase, beta subunit (Salmonella typhimurium, UniProt P0A2K1 2-397)
T1 sequence: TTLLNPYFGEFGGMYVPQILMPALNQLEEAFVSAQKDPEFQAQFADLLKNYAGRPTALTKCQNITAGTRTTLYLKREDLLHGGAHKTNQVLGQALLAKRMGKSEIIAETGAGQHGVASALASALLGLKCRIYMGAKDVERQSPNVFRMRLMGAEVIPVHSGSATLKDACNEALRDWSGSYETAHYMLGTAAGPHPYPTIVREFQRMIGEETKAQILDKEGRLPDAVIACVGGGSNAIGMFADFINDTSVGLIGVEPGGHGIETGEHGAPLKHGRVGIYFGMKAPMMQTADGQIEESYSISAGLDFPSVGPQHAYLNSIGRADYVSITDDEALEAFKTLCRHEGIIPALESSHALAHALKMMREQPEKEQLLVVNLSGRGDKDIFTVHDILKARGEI
Test: native MS; 10 μM purified complex buffer-exchanged in 200 mM ammonium acetate, electrosprayed (Synapt G2Si); subcomplexes generated in solution with 10–40% methanol, DMSO or acetonitrile
Details: both partners purified

B1: tryptophan synthase, alpha subunit (natural protein, Salmonella typhimurium)
chain: MERYENLFAQLNDRREGAFVPFVTLGDPGIEQSLKIIDTLIDAGADALELGVPFSDPLADGPTIQNANLRAFAAGVTPAQCFEMLALIREKHPTIPIGLLMYANLVFNNGIDAFYARCEQVGVDSVLVADVPVEESAPFRQAALRHNIAPIFICPPNADDDLLRQVASYGRGYTYLLSRSGVTGAENRGALPLHHLIEKLKEYHAAPALQGFGISSPEQVSAAVRAGAAGAISGSAIVKIIEKNLASPKQMLAELRSFVSAMKAASRA
B1: binds.
